Laboratory results reported in patent publication US20250154277A1 (CONCEPT TO MEDICINE BIOTECH, published 2025).

T1: human 5T4-His protein (human, UniProt Q13641 32-355)
T1 construct: also called recombinant 5T4 protein (human 5T4-his tag); human 5T4 protein; not shown: His tag
T1 sequence (looked up): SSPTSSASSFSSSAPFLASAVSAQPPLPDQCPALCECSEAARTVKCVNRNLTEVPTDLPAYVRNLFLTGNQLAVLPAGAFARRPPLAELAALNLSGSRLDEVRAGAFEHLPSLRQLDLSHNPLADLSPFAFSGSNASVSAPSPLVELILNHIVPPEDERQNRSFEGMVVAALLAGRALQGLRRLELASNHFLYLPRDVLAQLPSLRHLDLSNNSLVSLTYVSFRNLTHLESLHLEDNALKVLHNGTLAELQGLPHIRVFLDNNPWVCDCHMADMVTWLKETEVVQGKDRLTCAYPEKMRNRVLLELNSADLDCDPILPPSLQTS


Legend:
[1] = molecular target: T1, human 5T4-His protein; assay: SPR Biacore, Protein A capture
Experimental: The binding of the 393E9 humanized antibodies to recombinant 5T4 protein (human 5T4-his tag) was tested with Biacore using a capture method. The mAbs were captured using Protein A chip. A serial dilution of human 5T4-his tag protein was injected over captured antibody for 3 mins at a flow rate of 30 μl/min. The antigen was allowed to dissociate for 280-800 s. All the experiments were carried out on a Biacore T200. Data analysis was carried out using the Biacore T200 evaluation software.

[2] = molecular target: T1, human 5T4-His protein; assay: ELISA, coated 5T4-His
Experimental: To evaluate the binding activity of 393E9 humanized antibodies to human 5T4, the 393E9 chimeric antibody (393E9-C) along with 393E9 humanized mAbs were subjected to ELISA test.
Briefly, microtiter plates were coated with human 5T4-His protein at 1 μg/ml in PBS, 100 μl/well at 4° C. overnight, then blocked with 150 μl/well of 1% BSA. 4-fold dilutions of antibodies starting from 20 nM were added to each well and incubated for 1 hour at 37° C. The plates were washed with PBS/Tween and then incubated with Goat Anti-Human IgG-HRP for 30 mins at 37° C. After washing, the plates were developed with TMB substrate and analyzed by spectrophotometer at OD 450 nm. As shown in FIG. 12 and Table 9, most of the humanized antibodies bound to human 5T4 with high activity.

| Binder | Kd [1] [nM] | koff [1] [s⁻¹] | kon [1] [M⁻¹ s⁻¹] | EC50 [2] [nM] |
| --- | --- | --- | --- | --- |
| 393E9_hVH2_hVL1 (antibody, V domains shown, humanized) VH: EVQLVESGGGLIQPGGSLRLSCAASGFTFTDYYMSWVRQPPGKGLEWVGFIRNKGNGYTTENSASVKGRFTISRDNSKSTLYLQMNSLRAEDTAVYYCARYRGNPHYAMDYWGQGTLVTVSS VL: DIVLTQSPDSLAVSLGERATINCRASESVEFYGTSFLQWYQQKPGQPPKLLIYGASNVESGVPDRFSGSGSGTDFTLTISSLQAEDIAVYFCQQSRKVPSTFGGGTKVEIK | 0.547 | 0.000104 | 190000 | 0.17 |
| 393E9_hVH4_hVL2 (antibody, V domains shown, humanized) VH: EVQLVESGGGLVQPGGSLRLSCAASGFTFTDYYMSWVRQAPGKGLEWVGFIRNKGNGYTTENSASVKGRFTISRDNSKSSLYLQMNSLKTEDTAVYYCARYRGNPHYAMDYWGQGTLVTVSS VL: EIVLTQSPATLSVSPGERATLSCRASESVEFYGTSFLQWYQQKPGQAPRLLIYGASNVESGIPARFSGSGSGTEFTLTISSLQSEDIAVYFCQQSRKVPSTFGGGTKVEIK | 0.603 | 0.000123 | 204000 | 0.12 |
| 393E9_hVH2_hVL5 (antibody, V domains shown, humanized) VH: EVQLVESGGGLIQPGGSLRLSCAASGFTFTDYYMSWVRQPPGKGLEWVGFIRNKGNGYTTENSASVKGRFTISRDNSKSTLYLQMNSLRAEDTAVYYCARYRGNPHYAMDYWGQGTLVTVSS VL: EIVLTQSPGTLSLSPGERATLSCRASESVEFYGTSFLQWYQQKPGQAPRLLIYGASNVESGIPDRFSGSGSGTDFTLTISRLEPEDIAVYFCQQSRKVPSTFGGGTKVEIK | 0.56 | 0.000122 | 217000 | 0.11 |
| 393E9_hVH3_hVL5 (antibody, V domains shown, humanized) VH: QVQLVESGGGVVQPGGSLRLSCAASGFTFTDYYMSWVRQAPGKGLEWVGFIRNKGNGYTTENSASVKGRFTISRDNSKSTLYLQMNSLRAEDTAVYYCARYRGNPHYAMDYWGQGTLVTVSS VL: EIVLTQSPGTLSLSPGERATLSCRASESVEFYGTSFLQWYQQKPGQAPRLLIYGASNVESGIPDRFSGSGSGTDFTLTISRLEPEDIAVYFCQQSRKVPSTFGGGTKVEIK | 0.502 | 0.00012 | 238000 | 0.12 |
| 393E9_hVH2_hVL2 (antibody, V domains shown, humanized) VH: EVQLVESGGGLIQPGGSLRLSCAASGFTFTDYYMSWVRQPPGKGLEWVGFIRNKGNGYTTENSASVKGRFTISRDNSKSTLYLQMNSLRAEDTAVYYCARYRGNPHYAMDYWGQGTLVTVSS VL: EIVLTQSPATLSVSPGERATLSCRASESVEFYGTSFLQWYQQKPGQAPRLLIYGASNVESGIPARFSGSGSGTEFTLTISSLQSEDIAVYFCQQSRKVPSTFGGGTKVEIK | 0.594 | 0.00012 | 201000 | 0.12 |
| 393E9_hVH3_hVL1 (antibody, V domains shown, humanized) VH: QVQLVESGGGVVQPGGSLRLSCAASGFTFTDYYMSWVRQAPGKGLEWVGFIRNKGNGYTTENSASVKGRFTISRDNSKSTLYLQMNSLRAEDTAVYYCARYRGNPHYAMDYWGQGTLVTVSS VL: DIVLTQSPDSLAVSLGERATINCRASESVEFYGTSFLQWYQQKPGQPPKLLIYGASNVESGVPDRFSGSGSGTDFTLTISSLQAEDIAVYFCQQSRKVPSTFGGGTKVEIK | 0.506 | 0.000108 | 213000 | 0.16 |
| 393E9_hVH1_hVL5 (antibody, V domains shown, humanized) VH: EVQLVESGGGLVQPGGSLRLSCAASGFTFTDYYMSWVRQAPGKGLEWVGFIRNKGNGYTTENSASVKGRFTISRDNSKSTLYLQMNSLRAEDTAVYYCARYRGNPHYAMDYWGQGTLVTVSS VL: EIVLTQSPGTLSLSPGERATLSCRASESVEFYGTSFLQWYQQKPGQAPRLLIYGASNVESGIPDRFSGSGSGTDFTLTISRLEPEDIAVYFCQQSRKVPSTFGGGTKVEIK | 0.515 | 0.000112 | 217000 | 0.13 |
